Experimental data taken from US20140044735A1 (ISNERM INSTITUT NATIONAL DE LA SANTE ET DE LA RECHERCHE …, published 2014).
Values joined by “and” are separate entries in the source; they are usually repeats but may differ in a detail not shown here. Identical values can stand only once.

Tests used:
[1] = target: CD47 on mouse erythrocytes (wild type and SAD transgenic mice) (mouse) (UniProt Q61735); assay: cell-based or functional assay
[2] = target: CD47 on mouse erythrocytes (wild type and SAD transgenic mice) (mouse) (UniProt Q61735); assay: flow cytometry of fresh mouse erythrocytes stained with the FITC-coupled antibody
[3] = target: T1, CD47 on mouse erythrocytes (wild type and SAD transgenic mice) (mouse, UniProt Q61735 19-303); assay: cell-based or functional assay
T1 sequence (looked up): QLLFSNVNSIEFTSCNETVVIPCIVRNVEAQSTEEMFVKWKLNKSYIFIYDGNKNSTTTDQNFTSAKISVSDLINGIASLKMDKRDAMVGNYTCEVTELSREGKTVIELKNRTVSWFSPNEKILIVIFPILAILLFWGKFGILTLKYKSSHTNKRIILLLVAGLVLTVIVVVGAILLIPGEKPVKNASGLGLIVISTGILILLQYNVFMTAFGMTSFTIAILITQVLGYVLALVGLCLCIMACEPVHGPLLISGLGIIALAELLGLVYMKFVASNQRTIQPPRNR

For “Human recombinant TSP1 (thrombospondin-1) (from UniProt P07996 19-1170) (ligand)”, the echinocytes among SAD mouse erythrocytes under shear [1] was 50% and the proportion of echinocytes among wild type mouse erythrocytes under shear [1] was > 10 fold and 30%.

“mouse-specific fluoroisothiocyanate (FITC)-coupled anti-CD47 monoclonal antibody (clone mIAP301; BD Biosciences)” was tested, and the CD47 expression by FACS (percent) [2] was 85%.

B1: 4N1-1 synthetic peptide (RFYVVMWK), TSP1 carboxyterminal peptide (peptide)
peptide: RFYVVMWK
In the case of B1, the “MP shedding by SAD mouse erythrocytes” value [3] is reported as 40 fold, the “MP shedding by wild type mouse erythrocytes” value [3] is reported as 16 fold and the “echinocytosis of wild type mouse erythrocytes” value [3] is reported as 2 fold.
